Results taken from publication PMC5008402.

Assays:
[1] = phospho-specific blot; conditions: glycan lost; control: WT TAB3
[2] = Flag IP, pThr404 TAB3 blot; conditions: glycan lost; control: WT TAB3, IL-1β treated

B1: TAK1 binding protein 3 (TAB3): S408A (protein)
parent chain: MAQSSPQLDIQVLHDLRQRFPEIPEGVVSQCMLQNNNNLEACCRALSQESSKYLYMEYHSPDDNRMNRNRLLHINLGIHSPSSYHPGDGAQLNGGRTLVHSSSDGHIDPQHAAGKQLICLVQEPHSAPAVVAATPNYNPFFMNEQNRSAATPPSQPPQQPSSMQTGMNPSAMQGPSPPPPPPSYMHIPRYSTNPITVTVSQNLPSGQTVPRALQILPQIPSNLYGSPGSIYIRQTSQSSSGRQTPQSTPWQSSPQGPVPHYSQRPLPVYPHQQNYQPSQYSPKQQQIPQSAYHSPPPSQCPSPFSSPQHQVQPSQLGHIFMPPSPSTTPPHPYQQGPPSYQKQGSHSVAYLPYTASSLSKGSMKKIEITVEPSQRPGTAINRSPSPISNQPSPRNQHSLYTATTPPSSSPSRGISSQPKPPFSVNPVYITYTQPTGPSCTPSPSPRVIPNPTTVFKITVGRATTENLLNLVDQEERSAAPEPIQPISVIPGSGGEKGSHKYQRSSSSGSDDYAYTQALLLHQRARMERLAKQLKLEKEELERLKSEVNGMEHDLMQRRLRRVSCTTAIPTPEEMTRLRSMNRQLQINVDCTLKEVDLLQSRGNFDPKAMNNFYDNIEPGPVVPPKPSKKDSSDPCTIERKARRISVTSKVQADIHDTQAAAADEHRTGSTQSPRTQPRDEDYEGAPWNCDSCTFLNHPALNRCEQCEMPRYT
other: TAB3 S60 and S506 phosphorylation [1]: no change | other: TAB3 Thr404 phosphorylation [2]: decreases
